Article PMC12361432
Residue numbers refer to the chain shown, from its start. Names and notes keep the numbering of the source.

Assays:
CCR9 Y126A (human) = test: flow cytometry on cells; TAMRA-labeled chemokine (four concentrations, highest 300 nM used to compare mutants) incubated 1 h with HEK293T cells expressing WT or mutant CCR9 in FACS buffer (1x PBS, 1 mM EDTA, 1% BSA); median fluorescence; nonspecific binding on parental HEK293T cells; binding ratios mutant:WT
CCR9 F299A (human) = test: as above
[1] = target: T1, TAMRA-labeled CCL25 (CCL25(1-73), norleucine 64, C-terminal azidolysine coupled to TAMRA-PEG4-DBCO); test: flow cytometry on cells; details: chain shown with the change; 300 nM TAMRA-CCL25; HEK293T cells; read off a plot
T1 chain: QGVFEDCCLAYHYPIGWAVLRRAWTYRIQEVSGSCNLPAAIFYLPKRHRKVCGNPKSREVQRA

## TAMRA-labeled CCL25 (CCL25(1-73), norleucine 64, C-terminal azidolysine coupled to TAMRA-PEG4-DBCO) (ligand)
CCR9 S292A (human)
  CCL25-induced Ca^2+ response in HEK293T cells expressing the CCR9 mutant, percent of WT output (CCL25 without dye): 48%
CCR9 D296A (human)
  CCL25-induced Ca^2+ response in HEK293T cells expressing the CCR9 mutant, percent of WT output (CCL25 without dye): 15%
CCR9 Y126A (human)
  fold change in binding against WT CCR9: 2.5 fold
CCR9 F299A (human)
  fold change in binding against WT CCR9: 2.2 fold
CCR9 Y202A (human)
  CCL25-induced Ca^2+ mobilization in HEK293T cells expressing the CCR9 mutant, area under the concentration-response curve against WT (CCL25 without dye): < 15%
CCR9 R44A (human)
  CCL25-induced Ca^2+ mobilization in HEK293T cells expressing the CCR9 mutant, area under the concentration-response curve against WT (CCL25 without dye): < 15%
CCR9 K40A (human)
  CCL25-induced Ca^2+ mobilization in HEK293T cells expressing the CCR9 mutant, area under the concentration-response curve against WT (CCL25 without dye): < 15%
CCR9 K211A (human)
  CCL25-induced Ca^2+ mobilization in HEK293T cells expressing the CCR9 mutant, area under the concentration-response curve against WT (CCL25 without dye): < 15%

B1: C-C chemokine receptor 9 (CCR9), wild type Y202A (protein)
chain: MTPTDFTSPIPNMADDYGSESTSSMEDYVNFNFTDFYCEKNNVRQFASHFLPPLYWLVFIVGALGNSLVILVYWYCTRVKTMTDMFLLNLAIADLLFLVTLPFWAIAAADQWKFQTFMCKVVNSMYKMNFYSCVLLIMCISVDRYIAIAQAMRAHTWREKRLLYSKMVCFTIWVLAAALCIPEILYSQIKEESGIAICTMVAPSDESTKLKSAVLTLKVILGFFLPFVVMACCYTIIIHTLIQAKKSSKHKALKVTITVLTVFVLSQFPYNCILLVQTIDAYAMFISNCAVSTNIDICFQVTQTIAFFHSCLNPVLYVFVGERFRRDLVKTLKNLGCISQAQWVSFTRREGSLKLSSMLLETTSGALSL
[1]
  ratio to parent: 0.73

B2: C-C chemokine receptor 9 (CCR9), wild type S292A (protein)
chain: B1 chain with A202Y, S292A
[1]
  ratio to parent: 0.66

B3: C-C chemokine receptor 9 (CCR9), wild type K40A (protein)
chain: B1 chain with K40A, A202Y
[1]
  ratio to parent: 0.83

B4: C-C chemokine receptor 9 (CCR9), wild type K211A (protein)
chain: B1 chain with A202Y, K211A
[1]
  ratio to parent: 1.1

B5: C-C chemokine receptor 9 (CCR9), wild type D296A (protein)
chain: B1 chain with A202Y, D296A
[1]
  ratio to parent: 0.81

B6: C-C chemokine receptor 9 (CCR9), wild type R44A (protein)
chain: B1 chain with R44A, A202Y
[1]
  ratio to parent: 0.61
